Results reported in article doi:10.1101/2022.06.02.493408 (bioRxiv, 2022).
Like-named read-outs stand apart in the source and are kept apart here.

B1: BetP-ΔN29/E44E45E46/AAA (crystallization mutant BetP^cryst) (natural protein, Corynebacterium glutamicum, UniProt P54582 30-595, looked up)
chain: LENPTNLEGKLADAAAAIILEGEDTQASLNWSVIVPALVIVLATVVWGIGFKDSFTNFASSALSAVVDNLGWAFILFGTVFVFFIVVIAASKFGTIRLGRIDEAPEFRTVSWISMMFAAGMGIGLMFYGTTEPLTFYRNGVPGHDEHNVGVAMSTTMFHWTLHPWAIYAIVGLAIAYSTFRVGRKQLLSSAFVPLIGEKGAEGWLGKLIDILAIIATVFGTACSLGLGALQIGAGLSAANIIEDPSDWTIVGIVSVLTLAFIFSAISGVGKGIQYLSNANMVLAALLAIFVFVVGPTVSILNLLPGSIGNYLSNFFQMAGRTAMSADGTAGEWLGSWTIFYWAWWISWSPFVGMFLARISRGRSIREFILGVLLVPAGVSTVWFSIFGGTAIVFEQNGESIWGDGAAEEQLFGLLHALPGGQIMGIIAMILLGTFFITSADSASTVMGTMSQHGQLEANKWVTAAWGVATAAIGLTLLLSGGDNALSNLQNVTIVAATPFLFVVIGLMFALVKDLSNDVIYLEYREQQRFNARLARERRVHNEHRKRELAAKRRRERKASGAGKRR

Legend:
[1] = target: WT BetP reconstituted in amphipol A8-35 (AMP-BetP) (Corynebacterium glutamicum) (UniProt P54582); assay: cryo-EM structure
[2] = target: WT BetP reconstituted in amphipol A8-35 (AMP-BetP) (Corynebacterium glutamicum) (UniProt P54582); assay: cryo-EM structure; remark: listed apart in the source
[3] = target: the molecule itself; assay: crystal structure

Molecule	stoichiometry N [1]	stoichiometry N [2]	stoichiometry N [3]
WT BetP reconstituted in amphipol A8-35 (AMP-BetP) (from UniProt P54582 1-595) (natural protein)	3	3	–
B1	–	–	3
